The record followed here is paper PMC3524126, “Live-Cell Visualization of Intracellular Interaction between a Nuclear Migration Protein (hNUDC) and the Thrombopoietin Receptor (Mpl)” (PLoS ONE, 2012).

For this assay, the target named is T1, Flag-Mpl-VN (full-length thrombopoietin receptor Mpl fused to the N-terminal half of Venus) (UniProt P40238 26-635).
T1 construct: Inserted between Flag and VN in pBiFC-VN173; also called pFlag-Mpl-VN; source: Cos-1, transiently transfected, in living cells; not shown: Flag, N-terminal, kept; Venus N-terminal fragment 1-173 (VN), C-terminal, kept
T1 sequence (looked up): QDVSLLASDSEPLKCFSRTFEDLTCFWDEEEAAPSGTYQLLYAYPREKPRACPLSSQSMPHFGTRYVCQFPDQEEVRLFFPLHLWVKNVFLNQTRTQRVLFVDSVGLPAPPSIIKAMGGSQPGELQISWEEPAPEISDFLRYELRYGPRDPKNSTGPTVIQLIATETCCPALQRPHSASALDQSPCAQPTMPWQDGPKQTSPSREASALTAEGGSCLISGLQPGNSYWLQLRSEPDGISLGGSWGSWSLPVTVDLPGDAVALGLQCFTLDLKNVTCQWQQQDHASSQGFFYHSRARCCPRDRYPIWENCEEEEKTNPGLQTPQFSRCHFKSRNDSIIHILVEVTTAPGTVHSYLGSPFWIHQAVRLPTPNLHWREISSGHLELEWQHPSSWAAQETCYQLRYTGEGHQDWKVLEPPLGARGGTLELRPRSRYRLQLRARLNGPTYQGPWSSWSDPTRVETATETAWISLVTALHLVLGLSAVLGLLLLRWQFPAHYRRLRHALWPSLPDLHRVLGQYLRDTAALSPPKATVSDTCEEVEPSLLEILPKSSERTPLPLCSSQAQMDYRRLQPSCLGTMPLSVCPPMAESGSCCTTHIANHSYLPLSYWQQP
Put plainly: split reporter (BiFC, NanoBiT); Venus BiFC read by flow cytometry of Cos-1 cells, 12 h after transfection; 1x10^4 cells, Venus-positive cells against untransfected and empty-vector cells. Conditions: partners not purified. In general terms: A flow cytometer gives signals particle by particle.

B1: HA-hNUDC(1-159)-VC (N-terminal half of hNUDC fused to the C-terminal half of Venus) (domain or fragment)
chain: not shown
notes: human NUDC (hNUDC), N-terminal half, residues 1-159; Cloned between HA and VC in pBiFC-VC155; also called pHA-hNUDC(1-159)-VC; source: Cos-1, transiently transfected, in living cells; not shown: HA, N-terminal, kept; Venus C-terminal fragment 155-238 (VC), C-terminal, kept
On to B1, for which the “fold increase of the Venus signal over untransfected Cos-1 cells” value is 16.2 fold.

B2: HA-hNUDC-VC (full-length human NUDC fused to the C-terminal half of Venus) (natural protein)
chain: not shown
notes: Cloned between HA and VC in pBiFC-VC155; also called pHA-hNUDC-VC; phNUDC-VC; source: Cos-1, transiently transfected, in living cells; not shown: HA, N-terminal, kept; Venus C-terminal fragment 155-238 (VC), C-terminal, kept
Consider B2, for which the “fold increase of the Venus signal over untransfected Cos-1 cells” value is 16.7 fold.
